This passage reports kd var/kd wt results from US20170342144A1 (Sanofi, published 2017).

Numbering of substitutions follows the chain as printed.

Sequences and labels used below:
B1: D56N (antibody, V domains shown)
VH: QVQLVQSGAEVKKPGSSVKVSCKASGYTFSSNVISWVRQAPGQGLEWMGGVIPIVNIANYAQRFKGRVTITADESTSTTYMELSSLRSEDTAVYYCASTLGLVLDAMDYWGQGTLVTVSS
VL: ETVLTQSPGTLSLSPGERATLSCRASQSLGSSYLAWYQQKPGQAPRLLIYGASSRAPGIPDRFSGSGSGTDFTLTISRLEPEDFAVYYCQQYADSPITFGQGTRLEIK
notes: GC1008 IgG4 variant
B2: I54L (antibody, V domains shown)
VH: B1 VH with I54L, N56D
VL: B1 VL
notes: GC1008 IgG4 variant
B3: N32T (antibody, V domains shown)
VH: B1 VH with N32T, N56D
VL: B1 VL
notes: GC1008 IgG4 variant
B4: I54V (antibody, V domains shown)
VH: B1 VH with I54V, N56D
VL: B1 VL
notes: GC1008 IgG4 variant
B5: D56T (antibody, V domains shown)
VH: B1 VH with N56T
VL: B1 VL
notes: GC1008 IgG4 variant
B6: N32W (antibody, V domains shown)
VH: B1 VH with N32W, N56D
VL: B1 VL
notes: GC1008 IgG4 variant
B7: D56Q (antibody, V domains shown)
VH: B1 VH with N56Q
VL: B1 VL
notes: GC1008 IgG4 variant
B8: I54A (antibody, V domains shown)
VH: B1 VH with I54A, N56D
VL: B1 VL
notes: GC1008 IgG4 variant
B9: I54M (antibody, V domains shown)
VH: B1 VH with I54M, N56D
VL: B1 VL
notes: GC1008 IgG4 variant
B10: N32Q (antibody, V domains shown)
VH: B1 VH with N32Q, N56D
VL: B1 VL
notes: GC1008 IgG4 variant
B11: N32R (antibody, V domains shown)
VH: B1 VH with N32R, N56D
VL: B1 VL
notes: GC1008 IgG4 variant
B12: I54H (antibody, V domains shown)
VH: B1 VH with I54H, N56D
VL: B1 VL
notes: GC1008 IgG4 variant
B13: N32L (antibody, V domains shown)
VH: B1 VH with N32L, N56D
VL: B1 VL
notes: GC1008 IgG4 variant
B14: N32P (antibody, V domains shown)
VH: B1 VH with N32P, N56D
VL: B1 VL
notes: GC1008 IgG4 variant
B15: N32D (antibody, V domains shown)
VH: B1 VH with N32D, N56D
VL: B1 VL
notes: GC1008 IgG4 variant
B16: I52V (antibody, V domains shown)
VH: B1 VH with I52V, N56D
VL: B1 VL
notes: GC1008 IgG4 variant
B17: D56S (antibody, V domains shown)
VH: B1 VH with N56S
VL: B1 VL
notes: GC1008 IgG4 variant
B18: G101Y (antibody, V domains shown)
VH: B1 VH with N56D, G101Y
VL: B1 VL
notes: GC1008 IgG4 variant
B19: N32V (antibody, V domains shown)
VH: B1 VH with N32V, N56D
VL: B1 VL
notes: GC1008 IgG4 variant
B20: I54P (antibody, V domains shown)
VH: B1 VH with I54P, N56D
VL: B1 VL
notes: GC1008 IgG4 variant
B21: D56V (antibody, V domains shown)
VH: B1 VH with N56V
VL: B1 VL
notes: GC1008 IgG4 variant
B22: N32A (antibody, V domains shown)
VH: B1 VH with N32A, N56D
VL: B1 VL
notes: GC1008 IgG4 variant
B23: N32S (antibody, V domains shown)
VH: B1 VH with N32S, N56D
VL: B1 VL
notes: GC1008 IgG4 variant
B24: N32G (antibody, V domains shown)
VH: B1 VH with N32G, N56D
VL: B1 VL
notes: GC1008 IgG4 variant
B25: E74C (antibody, V domains shown)
VH: B1 VH with N56D, E74C
VL: B1 VL
notes: GC1008 IgG4 variant
B26: N32M (antibody, V domains shown)
VH: B1 VH with N32M, N56D
VL: B1 VL
notes: GC1008 IgG4 variant
B27: L104W (antibody, V domains shown)
VH: B1 VH with N56D, L104W
VL: B1 VL
notes: GC1008 IgG4 variant

For the first assay, the target named is T1, human TGFβ2 (human, UniProt P61812 303-414).
T1 construct: also called TGFβ2 homodimer
T1 sequence: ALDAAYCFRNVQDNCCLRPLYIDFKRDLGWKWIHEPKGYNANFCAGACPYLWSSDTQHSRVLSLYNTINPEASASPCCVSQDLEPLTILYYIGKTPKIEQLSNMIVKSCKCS
Put plainly: Biacore off-rate vs wt GC1008, 50 nM. An excerpt: (§1) Plasmids encoding either the GC1008 heavy chain or light chain were used as a template in PCR-based mutagenesis reactions. Mutations to the encoding DNA were made to create 155 single amino acid substitutions of the encoded heavy chain amino acid sequence and one single amino acid substitution of the encoded light chain amino acid sequence. A QuikChange® Lightning Site-Directed Mutagenesis kit (Agilent Technologies, Santa Clara Calif.) was used according to the manufacturer's instructions to create DNA mutations using a set of forward and reverse primers, either designed for a specific amino acid or for all 20 amino acids with a degenerate codon (NNK). After sequencing confirmation, identified mutant DNA was paired with a wild-type light or heavy chain DNA for transfection into an Expi293F™ host cell suspension (Life Techonologies Corp., Grand Island, N.Y.). At 4 days post-transfection, conditioned media (1 mL) was harvested and purified using a 1 mL Protein A PhyTip® column (PhyNexus, Inc., San Jose, Calif.) and a PureSpeed™ 12-channel pipette (Rainin Instrument LLC, Oakland, Calif.). Purified variant antibody samples were analyzed in duplicate on a Biacore® 3000 (GE Healthcare) at 50 nM concentrations, using the 100 RU level TGFβ1, 2, and 3 immobilized surfaces. The off-rate (kd) of the variants was divided by the kd of the wild-type control to obtain the fold change in the kd. […] A heat map was generated to visualize the results. Variants that completely lost affinity for TGFβ were shown in red without numbers.
B1 gave a kd var/kd wt of 1.4.

As to B2, the kd var/kd wt was 1.1.

In turn, B3 gave a kd var/kd wt of 1.2.

The molecule B4 came in with a kd var/kd wt of 1.

B5 displayed a kd var/kd wt of 1.5.

Consider B6, for which the kd var/kd wt is 1.2.

Take B7: the kd var/kd wt turned out to be 1.3.

The molecule B8 showed a kd var/kd wt of 1.5.

With B9, the kd var/kd wt came out at 1.3.

In turn, B10 returned a kd var/kd wt of 0.8.

The molecule B11 had a kd var/kd wt of 1.2.

B12 registered a kd var/kd wt of 1.4.

For B13, the kd var/kd wt was found to be 1.3.

Consider B14, for which the kd var/kd wt is 1.1.

The molecule B15 had a kd var/kd wt of 1.4.

Molecule B16 had a kd var/kd wt of 1.1.

B17 registered a kd var/kd wt of 1.3.

Turning to B18, the kd var/kd wt is 1.5.

Molecule B19 returned a kd var/kd wt of 1.1.

Turning to B20, the kd var/kd wt was 1.3.

For the molecule B21, the kd var/kd wt came out at 1.5.

Take B22: the kd var/kd wt stood at 1.4.

B23: the kd var/kd wt worked out at 1.3.

B24 yielded a kd var/kd wt of 1.2.

For the molecule B25, the kd var/kd wt came out at 0.8.

For B26, the kd var/kd wt is 1.3.

For the molecule B27, the kd var/kd wt was 2.9.

The next assay concerns the target T2, human TGFβ3 (human, UniProt P10600 301-412).
T2 sequence: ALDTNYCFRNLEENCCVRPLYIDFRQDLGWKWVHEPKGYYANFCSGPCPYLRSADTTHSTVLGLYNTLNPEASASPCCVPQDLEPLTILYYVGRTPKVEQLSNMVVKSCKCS
Put plainly: Biacore off-rate vs wt GC1008, 50 nM.
Description: as §1
For B1, the kd var/kd wt amounted to 0.9.

Consider B2, for which the kd var/kd wt is 1.1.

The molecule B3 gave a kd var/kd wt of 1.1.

Regarding B4, the kd var/kd wt was 0.8.

The molecule B5 gave a kd var/kd wt of 1.2.

As for B6, the kd var/kd wt was 1.1.

B7 had a kd var/kd wt of 1.

The molecule B8 showed a kd var/kd wt of 2.

In the case of B9, the kd var/kd wt turned out to be 1.7.

Take B10: the kd var/kd wt stood at 0.7.

As for B11, the kd var/kd wt is 1.7.

Turning to B12, the kd var/kd wt was found to be 1.6.

In turn, B13 yielded a kd var/kd wt of 1.7.

B14: the kd var/kd wt is 1.4.

Molecule B15 registered a kd var/kd wt of 1.8.

Molecule B16 came in with a kd var/kd wt of 1.2.

On to B17, for which the kd var/kd wt amounted to 1.

B18 yielded a kd var/kd wt of 2.

The molecule B19 displayed a kd var/kd wt of 1.4.

The molecule B20 returned a kd var/kd wt of 1.6.

In the case of B21, the kd var/kd wt amounted to 1.3.

B22: the kd var/kd wt was found to be 1.5.

Molecule B23 gave a kd var/kd wt of 1.2.

Take B24: the kd var/kd wt turned out to be 1.6.

In turn, B25 had a kd var/kd wt of 0.7.

As to B26, the kd var/kd wt was determined as 1.2.

Regarding B27, the kd var/kd wt is 5.1.

The target in another assay is T3, human TGFβ1 (human, UniProt P01137 279-390).
T3 construct: also called TGFβ1 homodimer
T3 sequence (P01137 279-390 limits assumed): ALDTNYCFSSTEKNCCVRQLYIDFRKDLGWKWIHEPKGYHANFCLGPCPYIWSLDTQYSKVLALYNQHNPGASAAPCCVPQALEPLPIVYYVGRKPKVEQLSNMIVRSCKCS
Put plainly: Biacore off-rate vs wt GC1008, 50 nM.
Description: as §1
In the case of B1, the kd var/kd wt came to 1.2.

With B2, the kd var/kd wt was determined as 1.2.

B3 returned a kd var/kd wt of 1.5.

B4 yielded a kd var/kd wt of 1.

As for B5, the kd var/kd wt amounted to 1.3.

Molecule B6 had a kd var/kd wt of 1.9.

As to B7, the kd var/kd wt is 1.1.

Consider B8, for which the kd var/kd wt was 1.8.

In the case of B9, the kd var/kd wt came out at 1.5.

In turn, B10 yielded a kd var/kd wt of 0.8.

B11 came in with a kd var/kd wt of 2.3.

Consider B12, for which the kd var/kd wt was 2.1.

B13 came in with a kd var/kd wt of 1.6.

B14 returned a kd var/kd wt of 2.

Consider B15, for which the kd var/kd wt is 1.3.

B16 returned a kd var/kd wt of 0.9.

Take B17: the kd var/kd wt is 1.1.

B18: the kd var/kd wt was found to be 1.9.

On to B19, for which the kd var/kd wt worked out at 1.5.

With B20, the kd var/kd wt worked out at 1.5.

The molecule B21 came in with a kd var/kd wt of 1.6.

In turn, B22 gave a kd var/kd wt of 1.3.

With B23, the kd var/kd wt stood at 1.3.

Regarding B24, the kd var/kd wt was determined as 1.2.

The molecule B25 gave a kd var/kd wt of 1.7.

Molecule B26 came in with a kd var/kd wt of 1.3.

With B27, the kd var/kd wt is 4.7.
